Test results from article PMC8607881 (Nature, 2021).

B1: Fab6 (Fab, V domains shown)
VH: EVQLVESGGGLVQPGGSLRLSCAASGFNFSSYSIHWVRQAPGKGLEWVAYISSYYGSTYYADSVKGRFTISADTSKNTAYLQMNSLRAEDTAVYYCARHEYGWWNDRWGLDYWGQGTLVTVSS
VL: DIQMTQSPSSLSASVGDRVTITCRASQSVSSAVAWYQQKPGKAPKLLIYSASSLYSGVPSRFSGSRSGTDFTLTISSLQPEDFATYYCQQSSWYGPFTFGQGTKVEIK
B2: C-terminally truncated bovine GRK1 (residues 1-535) with C-terminal His6 (enzyme, UniProt P28327 1-535, looked up)
chain: MDFGSLETVVANSAFIAARGSFDASSGPASRDRKYLARLKLPPLSKCEALRESLDLGFEGMCLEQPIGKRLFQQFLRTHEQHGPALQLWKDIEDYDTADDALRPQKAQALRAAYLEPQAQLFCSFLDAETVARARAGAGDGLFQPLLRAVLAHLGQAPFQEFLDSLYFLRFLQWKWLEAQPMGEDWFLDFRVLGRGGFGEVFACQMKATGKLYACKKLNKKRLKKRKGYQGAMVEKKILAKVHSRFIVSLAYAFETKTDLCLVMTIMNGGDIRYHIYNVDEDNPGFQEPRAIFYTAQIVSGLEHLHQRNIIYRDLKPENVLLDDDGNVRISDLGLAVELKAGQTKTKGYAGTPGFMAPELLLGEEYDFSVDYFALGVTLYEMIAARGPFRARGEKVENKELKQRVLEQAVTYPDKFSPASKDFCEALLQKDPEKRLGFRDGSCDGLRTHPLFRDISWRQLEAGMLTPPFVPDSRTVYAKNIQDVGAFSTVKGVAFEKADTEFFQEFASGTCPIPWQEEMIETGVFGDLNVWRPDG
B3: hyper-phosphorylated rhodopsin (light activated) (receptor, bovine, UniProt P02699 1-348, looked up)
chain: MNGTEGPNFYVPFSNKTGVVRSPFEAPQYYLAEPWQFSMLAAYMFLLIMLGFPINFLTLYVTVQHKKLRTPLNYILLNLAVADLFMVFGGFTTTLYTSLHGYFVFGPTGCNLEGFFATLGGEIALWSLVVLAIERYVVVCKPMSNFRFGENHAIMGVAFTWVMALACAAPPLVGWSRYIPEGMQCSCGIDYYTPHEETNNESFVIYMFVVHFIIPLIVIFFCYGQLVFTVKEAAAQQQESATTQKAEKEVTRMVIIMVIAFLICWLPYAGVAFYIFTHQGSDFGPIFMTIPAFFAKTSAVYNPVIYIMMNKQFRNCMVTTLCCGKNPLGDDEASTTVSKTETSQVAPA
modifications: 6–8 phosphates incorporated per rhodopsin (7 possible sites in the cytoplasmic tail)
B4: light activated rhodopsin (Rho*) (receptor, bovine, UniProt P02699 1-348, looked up)
chain: B3 chain
modifications: all-trans retinal (Meta II state)
B5: Fab1 (Fab, V domains shown)
VH: EVQLVESGGGLVQPGGSLRLSCAASGFNLYSSSIHWVRQAPGKGLEWVASIYSYYGSTSYADSVKGRFTISADTSKNTAYLQMNSLRAEDTAVYYCARYEGWWWANTYALDYWGQGTLVTVSS
VL: DIQMTQSPSSLSASVGDRVTITCRASQSVSSAVAWYQQKPGKAPKLLIYSASSLYSGVPSRFSGSRSGTDFTLTISSLQPEDFATYYCQQYYEWLSLFTFGQGTKVEIK

Key:
[1] = target: biotinylated Avi-tagged GRK1 (residues 1-535, His6-Avi), Sgv-bound (Bos taurus (Bovine)., UniProt P28327, biotin on the Avi-tag); assay: ELISA
[2] = target: B4; assay: cross-linking
[3] = target: B2; assay: cross-linking

Kd [1] [nM]	binding result [3]	Binder	other results
~2.5		B1	
		B2	stoichiometry N [2]: 1
	binds	B3	
	binds	B4	
~2.5		B5	
